Assay results from paper PMC3763369 (Structure(London, England:1993), 2013).

Tests used:
[1] = molecular target: T1, FANCM C-terminal fragment (FANCMCTD), residues 1,799-2,048 (human, UniProt Q8IYD8 1799-2048); test: crystal structure
T1 sequence (looked up): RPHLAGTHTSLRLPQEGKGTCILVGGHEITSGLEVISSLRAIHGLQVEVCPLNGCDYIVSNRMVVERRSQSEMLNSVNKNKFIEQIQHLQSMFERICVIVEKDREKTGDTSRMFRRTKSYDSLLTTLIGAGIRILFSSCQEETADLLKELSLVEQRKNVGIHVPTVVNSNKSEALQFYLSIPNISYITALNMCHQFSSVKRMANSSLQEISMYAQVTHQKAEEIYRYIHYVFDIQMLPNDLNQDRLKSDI

[2] = molecular target: full-length FANCM (N-terminal Flag-tag, C-terminal 8His-tag) (human, UniProt Q8IYD8 1-2048); test: negative-stain single particle electron microscopy
[3] = molecular target: T2, FANCM CTD;FAAP24 (human?;human?, UniProt Q8IYD8;Q9BTP7 1799-2048;1-215, |); test: X-ray crystallography
T2 sequence 1: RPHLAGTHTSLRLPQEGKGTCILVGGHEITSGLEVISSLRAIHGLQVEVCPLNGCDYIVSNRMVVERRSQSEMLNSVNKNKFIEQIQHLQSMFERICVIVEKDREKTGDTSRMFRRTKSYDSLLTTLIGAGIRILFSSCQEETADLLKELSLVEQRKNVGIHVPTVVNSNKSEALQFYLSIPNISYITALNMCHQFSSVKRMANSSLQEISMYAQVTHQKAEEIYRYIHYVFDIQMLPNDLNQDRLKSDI
T2 sequence 2: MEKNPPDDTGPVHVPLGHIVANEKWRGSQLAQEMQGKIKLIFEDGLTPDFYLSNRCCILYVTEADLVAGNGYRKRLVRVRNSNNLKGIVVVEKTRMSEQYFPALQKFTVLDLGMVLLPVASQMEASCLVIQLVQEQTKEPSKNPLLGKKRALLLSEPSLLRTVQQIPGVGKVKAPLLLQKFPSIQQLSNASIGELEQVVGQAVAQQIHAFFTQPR

B1: FAAP24 (full length), partner in the FANCMCTD-FAAP24 complex (natural protein, human, UniProt Q9BTP7 1-215, looked up)
chain: MEKNPPDDTGPVHVPLGHIVANEKWRGSQLAQEMQGKIKLIFEDGLTPDFYLSNRCCILYVTEADLVAGNGYRKRLVRVRNSNNLKGIVVVEKTRMSEQYFPALQKFTVLDLGMVLLPVASQMEASCLVIQLVQEQTKEPSKNPLLGKKRALLLSEPSLLRTVQQIPGVGKVKAPLLLQKFPSIQQLSNASIGELEQVVGQAVAQQIHAFFTQPR
Does B1 bind [1]?
Result: binds

B2: FAAP24, untagged, co-expressed with full-length FANCM (natural protein, human, UniProt Q9BTP7 1-215, looked up)
chain: MEKNPPDDTGPVHVPLGHIVANEKWRGSQLAQEMQGKIKLIFEDGLTPDFYLSNRCCILYVTEADLVAGNGYRKRLVRVRNSNNLKGIVVVEKTRMSEQYFPALQKFTVLDLGMVLLPVASQMEASCLVIQLVQEQTKEPSKNPLLGKKRALLLSEPSLLRTVQQIPGVGKVKAPLLLQKFPSIQQLSNASIGELEQVVGQAVAQQIHAFFTQPR
Does B2 bind [2]?
Result: binds

B3: 11 bp crystallization duplex (dsDNA)
DNA 1: GATGATGCTGA
DNA 2: TCAGCATCATC
Does B3 bind [3]?
Result: binds
